The results in this text go back to the DeepSol protein solubility set.

The data set in a line: soluble on expression in E. coli; label from the status in PepcDB or PDB records.
With “MFRHVAQNLGSRNTSIQSYRLLRTRWERGYLKDLYHRRQILGADPAISRSSYPNCSVQVRNHHCSADKSTLQWAPIKTSIDNSSDDFAANTAEMKVLVEDLKAKISKIEQAGGEKAVKLHRSRGKMLARERIDGIVDAGSPFIEFSQLAGYEMYGKEEVPSGGILTGVGIVSGRVCVIVANDATVKGGTYYPITVKKHLRAQEIARENKLPCIYLVDSGGANLPRQADIFADSQHFGRIFYNQATMSSEGIPQLAVVMGSCTAGGAYVPAMSDQAIIVKGTGTVFLGGPPLVKAATGEEISAEELGGADLHCGESGVTDYYAHNDKHALYLARSCIAGLPPVEEHMTFNPNADEPLYPAEEIYGIVGSNLKKTYDVREVIARIVDGSRFHEFKERYGETLVTGFATIYGQRVGILANNGVLFAESAMKGSHFIELCCQRKIPLLFLQNITGFMVGRDAEAGGIAKHGAKLVTAVACAKVPKITVLVGGSYGAGNYGMCGRGYSPRYVFMWPNSRISVMGGEQAANVLSTVQKEKKKREGADWTDQQDLELRKPVEEKFEKEGHPYFASARLWDDGVIDPKDTRKVLGLAFQSTLQKPIPETKFGVFRM”, the “soluble on expression in E. coli” value was “not soluble”.

In the case of “MAHHHHHHMAANGCFIAALIARTHDRLPLCSYTDDNYSNANVIRQQEQRIVERMESPAGGTDRAAAKGSYYESFDHKDNVYFAFQDAATDLTLVVAVNKLLLRNSGDINGMNKLACGLLDLIFSEFIQMYTPAEIGAPNVRAYQFIKFDATLRKCVTRIMQQDRTTGDRIV”, the “soluble on expression in E. coli” value was “not soluble”.

For the sequence “MAHHHHHHMSKKNKSFYENDGSGRDTFVNYAGAYWMNPLPAGTFFKSRGHLTQSSVPTENGTSLVMDDSTPYPGRTLFGKSRYGTTILAAGQVATLDAPADSQSGHSAGMGSTSRSTANPLAGTDADAQEFDGEATALEHISFDVSNPERRLRQPGHSTTGLEGTGGGSTYNGVKEPWTAPNAVDSTLLRLAPAYESTCHYHLRTGLFYTEDAAPPHEMTLPDKGVTWGRSRYY”, the “soluble on expression in E. coli” value is given as “soluble”.

In the case of “MSLRERNQVIPVLPPQERPRPTVVFDCEDFLVKKRFSFFNLDFLVTGRAFADLFLFHAAHIYELVHVSGSPGSFSRLLLHRIDPYGCISYKVYCKDKKTFSSEHLNRPLQRVMVVSTRENEYHKDFDGNTIKLERWSGDPEHGLLDLLNFLHSLHFMGIKDFRGTLRSYLGEGHHHHHH”, the “soluble on expression in E. coli” value is “not soluble”.

Take “MRGSHHHHHHTDPALRAALKATIYKATVNVADLDRNQFLDASLTLARHPSETQERMMLRLLAWLKYADERLQFTRGLCADDEPEAWLRNDHLGIDLWIELGLPDERRIKKACTQAAEVALFTYNSRAAQIWWQQNQSKCVQFANLSVWYLDDEQLAKVSAFADRTMTLQATIQDGVIWLSDDKNNLEVNLTAWQQPSGLCGR”: the “soluble on expression in E. coli” value is “soluble”.

Consider “SLKNTGYILALCLTASGHVLAHDVWITGKQAENNVTAEIGYGHNFPSKGTIPDRRDFFENPRLYNGKETITLKPASTDYVYKTESASKDNGYVLSTYMKPGYWSRTSSGWKPVSREGRNDVAYCEFVTKYAKSFIPGEQQMPAQLYQSPTGHELEIIPLSDISRFSENVKLKVLYKTSPLAGAIMELDSVSYLTSSRHTHAVEHKHPVHKAELTFVTNEDGIVTVPSLHIGQWLAKVQNKKSFQDKSLCDETVDVATLSFSRN”, for which the “soluble on expression in E. coli” value was “not soluble”.

Turning to “MSLTERPRDCRPVVRRARTSDVPAIKQLVDTYAGKILLEKNLVTLYEAVQEFWVAEHPDLYGKVVGCGALHVLWSDLGEIRTVAVDPAMTGHGIGHAIVDRLLQVARDLQLQRVFVLTFETEFFARHGFTEIEGTPVTAEVFDEMCRSYDIGVAEFLDLSYVKPNILGNSRMLLVLEGHHHHHH”, the “soluble on expression in E. coli” value was “soluble”.

With “MGSDKIHHHHHHPAAVKKIIETGQTDNRVMHQLDILTNRFGGRVIGSDAYENAAEWMMREYKRWGIDVRLEEAGELPVGFNRGPWFGRLIGGDQAMDLHFVTPSYTSGTKGLQRGHVLIEPRTQEELDRMKHQLKGAWVLISGENVGWPVDRSAKGDSLRAAIKAENIEIEKQNAALMEENWSKGTKHAMKPLREMPGLFYKEMCEAGALGFIQSAPVPLRALYDRALLNDPHTTFDNLPEVCDIKLDEHQYKIIKQMVKERRNFWLEFDIRNHFKLGPVKYHNVVASIKGTKYPDEYVIISGHLDSYDVATGGIDCGTGIGPMMEAARMIALSGAKPKRTILFVAFAGEEFGLLGAKAYVKTHAKELGKIANLFNRDGGPTPPVGISVPQAMYDDFVEVCKPVKEIRADYPFEVKVAKPFKRPTQSGGTDASVFAVEGVPTFGFNTQDIKGYNFSYGEIWHTERDLYTKNIPEYQEHAATVTAVVALGIANLSKQLSREGMHKK”, the “soluble on expression in E. coli” value was “not soluble”.

For “MGSDKIHHHHHHMSKIVALYNNKGGVSKTTTNFNLGVYLSQQGKRVLMVDCDPQCNLTELFFASRDDLEEPDVQLPGTSIYDALLPRFKGHQGRIEQSGIEVSEHSLYSSLFLFRGDLEFSRAETYLGTSWSQAVTENIHEKNTYIVFNKLMKDIGSARGYDYILCDVGPSTGAITKTVIISCDEIVIPLVPDRFCYQAVKLLGSVISEWIENHKIISDSLVPFGIEPFEGNPKLAGTVLQNFKVHAGSKVKESYIKWQKKITEEIQSSLCKENGFSPKVGFNIEEPYTASIKDVAVLAPVAQLFGRAIFDIEQEHTKEASSNGQMYYGTVWQPWLDRMSEYKEEIAKIAEAIS”, the “soluble on expression in E. coli” value is “not soluble”.

In the case of “MGSDKIHHHHHHMLRKDIGIDLGTANTLVFLRGKGIVVNEPSVIAIDSTTGEILKVGLEAKNMIGKTPATIKAIRPMRDGVIADYTVALVMLRYFINKAKGGMNLFKPRVVIGVPIGITDVERRAILDAGLEAGASKVFLIEEPMAAAIGSNLNVEEPSGNMVVDIGGGTTEVAVISLGSIVTWESIRIAGDEMDEAIVQYVRETYRVAIGERTAERVKIEIGNVFPSKENDELETTVSGIDLSTGLPRKLTLKGGEVREALRSVVVAIVESVRTTLEKTPPELVSDIIERGIFLTGGGSLLRGLDTLLQKETGISVIRSEEPLTAVAKGAGMVLDKVNILKKLQGAG”, the “soluble on expression in E. coli” value is reported as “not soluble”.

As for “MRGKNTGKQRRSIKKQQTVAELKHLFDAPGRGSVMPRQVLWGDLCLTAFPHELNSESTAPMHRYILLSIIRIPLPLTLESQRSLTLVKRCFRRSSVLSSTLYSRLGSTTF”, the “soluble on expression in E. coli” value is “not soluble”.

For the sequence “MGSDKIHHHHHHMSTLLQIKNLRTYFFTDEGVVKAVDGVSFEIEEGRTLGVVGESGCGKSVTARSIIKLLSTAGRIVSGEILYNMDGQMVDLVKFSKEEIRKVRGRHIAMIFQEPMAAFSPVYTIGDQITEGMIYHFGITKQEARERAVELLRRVGIPKPEKMIDSYPFEYSGGMRQRAMIAMALSCNPRLLIADEPTTALDVTIQAQVLDLLKDLQQEYKMAIMMITHNMGVVAEMADHVVVMYLGRVVESAPVEELFYNPKHPYTSLLLRSIPVVGKRVERLEVIEGDVPDPRNMPKGCRFHPRCPYMMKGICDEREPVEVEVGPEHRVSCFLYGGEKDGAS”, the “soluble on expression in E. coli” value is on record as “not soluble”.

Regarding “MQLKRVAEAKLPTPWGDFLMVGFEELATGHDHLALIFGDISGDKPVLSRVHSECLTGDALFSLRCDCGFQLEVALTRIAEEGRGVLIYHRQEGRNIGLLNKIRAYALQDLGADTVEANHQLGFAADERDFTLCSDMYKLLGIKAVRLLTNNPKKVEILTQAGINIVERVPLIVGENPKNEHYLATKAAKMGHLLTK”, the “soluble on expression in E. coli” value is listed as “not soluble”.

Take “QVQLQESGPGLVAPSQSLSITCTVSGFSLTGYGVNWVRQPPGKGLEWLGMIWGDGNTDYNSALKSRLSISKDNSKSQVFLKMNSLHTDDTARYYCARERDFRLDYWGQGTTLTVSS”: the “soluble on expression in E. coli” value is “soluble”.

Consider “MTGNVLNYYAGGNTARGFHNLYEENLKGLDRLFILKGGPGTGKSSLIKAIGREWIEKGYDIEFLHCSSDNKSVDGVIIPKLKVGIVDGTSPHVIEPKMPGVVEEYINLGIAWDSDKLRKQKLEIERFVSEASKAFQSAYARFKEALVIHDEWEKIYIDNIDFNKANELTNQLIQKLFADKSGRQSLVKHRFLGAATPKGAVDFVPNLTEGLPHRYFIKGRPGSGKSTMLKKLAKAAEEKGFEVEVYHCGFDPNSLDMVIVRELGFAIFDSTAPHEYFPSREGDEIIDMYALIVTPGTDEKYAKEIRDVSIQYKAKMNEAMSFLAKAKSIRDKLERIYIAAMDFSIVDAYKEEIQKEFERIAATVIEKQQ”, for which the “soluble on expression in E. coli” value is recorded as “not soluble”.

For “MGSDKIHHHHHHMSLILELKNISKHYPGVKALETVSLRLFSGEVHALLGENGAGKSTLVKVMTGAQSKDGGEIIFLNEKQHFNTPIEAQKIGISTVYQEVNLVPNLTVAQNLFLGHEPKRFGLIHFQKMYADARTVLTQFKLDIDVSAPLSSYSIAVQQLIAIARGVAMSAKVLVLDEPTASLDADEVQVLFGILNQLKQKGVAIVFITHFLDQVYQISDRITVLRNGRFIGEYLTSELPQPQLIEAMLGRSLQQHLVEKTSAEQTTNGTSAVLLSLEGVSVKGSIQSMNLTVPKGQAVGLAGLLGSGRSEVCNAVFGLDLLDSGSIHLAGKKLHLSHPVDAINAGIALCPEDRKVDGIIGPLSIRENIILALQARVGWWRCLSKTRQQEIAQFFIDKLQIATPDADKPIEQLSGGNQQKVILARWLAIEPILLVLDEPTRGIDIGAHAEIIKLIRTLCDDGMSLLVASSELDELVAFSNKVVVLRDRYAVRELSGSELTSQHVMQAIAEG”, the “soluble on expression in E. coli” value was “not soluble”.

On to “MAAEEATEFYLRYYVGHKGKFGHEFLEFEFREDGKLRYANNSNYKNDTIIRKEVFLTPAVLKECKRIVSESEILKEDDNNWPEPDRVGKQELEIVLGNEHISFATSKIGSLVDCQSSNDPEGLRIFYYLVQDLKCLVFSLISLHFKIKPILEHHHHHH”, for which the “soluble on expression in E. coli” value is recorded as “not soluble”.

As to “MLDGLVVGGGLAGLTAARVLTRAGRRVRVLEAAPEVGGRVRSRELEGFTLDAGFQVLFPAYPAVRRQLNLDALDLVPLPSAAALRRGAREDVLGSPLDDLASLPSTLKSGALTLGDKLRVARLAASLRTPAAHELLIGSDESTESFLRGQGFSEAALDHFFRPFFGGIFLRRDLATSARLFRYYFRMLMDGGAALPRRGMGELSRQLAQGSDLLTGVRVSRLLPRPGYVTAVTSAGEIDARQVIVATEAPTASDLTGEALSRGALSSTYLYYATPQRISGQHRLLLNAETGLINNAQWTSLAVPGRAPTGQHLLTVTVLGLPDLDDASLDARVRGELTRWYGAEAVGTLRLLMLERIPYAQFEQPAGYAATLPGHATSLPGVLLASEITSMSGIQGALESGEKAAAIVLGDLAALSRPRGALEHHHHHH”, the “soluble on expression in E. coli” value is recorded as “not soluble”.

With “QSATARPMAIALGVAEPAPRGFLLIGANRVAREIGQALARYDRRVLMTDSNWEYISQVRMMGLDYYYGNPISSHADDNLNMIGIGQVVALTPDQHFNIMACMQFVDEFGEDKVHCLQKVKTNGNGSEKHSVAQEYHGKLLMGGNVSYTQLASLLSRGAEIKHTKLSENFTYQDYLEHHKTNLVIPLFNVEDKGKIQFCDDPDQFAPSTTSTIVSLILPESAQ”, the “soluble on expression in E. coli” value was “not soluble”.

On to “MGSDKIHHHHHHMTGVQFIDVTDSEAIFDDNQWDAVVLVTHGLDAIAQEELAMLASHGAQVDARVGRSTTLLFAPGLAGGRLIVAPVADGDSDIQDVRGYSDAARQGIKVAFDAGARRPLLIVTPSTQARYAQSMGVAALGCAQALWQSLERREVLGEMDNISQIGLLVDDKAGELLCAIEAGKHLARDLCGTEPERMSAPAFAQYCVDALEGLDLTMSVVEDRDVLERDYPLLSAVGRASFAVSRHQPRVVKLEYKAEGPIERSYFFAGKGVVYDTGGADLKVGGAMAGMSRDKGGAAAVAGLMKTLALLKPKGVRVVAELGLVRNSIGSEAFVTDEIITSHAGVRVRIGNTDAEGRLVLADLLSHLRLKAQDAVAPQLFSVATLTGHVVRAYGGYTAVVENAVARQQQVGDSLQTISEAWGEPIEVSRLRRDDYQKIVDPSGAADVLSSNNAPSSVTARGHQYPAAFLLKASGLEAHGLTSDKPLAYTHVDIAGSATEGDPLYGTPTAAPLVSLCQLIRG”, for which the “soluble on expression in E. coli” value is recorded as “not soluble”.
